Publication PMC7584215, ““The structure of the Type III secretion system export gate with CdsO, an ATPase lever arm”” (PLoS Pathogens, 2020)

B1: CdsV C-terminal region (residues 345-710) from Chlamydia pneumoniae (domain or fragment)
chain: ASTTVGAAGDGAATVGDNPDDYSLTLPVILELGKDLSKLIQHKTKSGQSFVDDMIPKMRQALYQDIGIRYPGIHVRTDSPSLEGYDYMILLNEVPYVRGKIPPHHVLTNEVEDNLSRYNLPFITYKNAAGLPSAWVSEDAKAILEKAAIKYWTPLEVIILHLSYFFHKSSQEFLGIQEVRSMIEFMERSFPDLVKEVTRLIPLQKLTEIFKRLVQEQISIKDLRTILESLSEWAQTEKDTVLLTEYVRSSLKLYISFKFSQGQSAISVYLLDPEIEEMIRGAIKQTSAGSYLALDPDSVNLILKSMRNTITPTPAGGQPPVLLTAIDVRRYVRKLIETEFPDIAVISYQEILPEIRIQPLGRIQIF
notes: CdsV (export gate protein, SctV family), Chlamydia pneumoniae, residues 345-710, the cytoplasmic C-terminal region; Cloned into pET28 with the vector's N-terminal hexa-His tag and thrombin cleavage site; Homo-nonameric ring; also called WT CdsVc; soluble export gate; source: nonameric peak fractions pooled

Key:
[1] = target: the molecule itself; experiment: crystal structure; CdsVC alone; hanging drop, 100 mM HEPES pH 6.75, 5% PEG-6000, 21°C; refined to 2.8 Å
[2] = target: B1; experiment: crystal structure; CdsVC mixed with ~10% molar excess of CdsO_(25-110); 100 mM Bis-Tris pH 6.0, 4% PEG 3350, 200 mM ammonium acetate; refined to 4.6 Å; details: both partners purified
[3] = target: B1; experiment: ITC; monomeric CdsO_(25-110) (2.2 mM) titrated into nonameric CdsVc (15.0 uM) or nonameric CdsVc L638A/D639A (12.1 uM); 20°C; 10 mM HEPES pH 7.5, 500 mM NaCl; 24 x 2 uL injections; details: both partners purified

Binder: B1
- stoichiometry N [1]: 9

B2: CdsO residues 25-110 from Chlamydia pneumoniae (domain or fragment)
chain: KEKRRLLEIEQEKLREKEAERDKVKNHYMQKIQQLRDLLDEGTTSDAVLQIKSYIKVVAVQLSEEEEKVNKQKEVVLAASKELEKA
notes: CdsO (central stalk protein of the T3SS ATPase, SctO family), Chlamydia pneumoniae, residues 25-110 of the 168 residues of full-length CdsO; Cloned into pET28 as CdsV; Called monomeric in the ITC methods; also called CdsO_(25-110); central stalk protein
- stoichiometry N [2]: 1
- Kd [3]: 28 ± 3 µM
